# From patent US20150203575A1 (Genentech, published 2015)
# T1: mouse CD99 expressed on 293T cells (mouse, UniProt Q8VCN6 29-175, sialylated O-glycans at Thr-45 and Thr-50 (cited as relevant for PILRα recognition))
# T1 construct: whole, on cells; also called mCD99; mCD99 transfectants
# T1 sequence (looked up): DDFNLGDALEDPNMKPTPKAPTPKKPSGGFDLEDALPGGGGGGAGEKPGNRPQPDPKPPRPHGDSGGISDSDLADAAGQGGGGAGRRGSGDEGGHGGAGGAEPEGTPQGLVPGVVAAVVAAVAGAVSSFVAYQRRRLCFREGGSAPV
# T2: human NPDC1 expressed on cells (human, UniProt Q9NQX5 35-325)
# T2 construct: also called hNPDC1; hNPCD1
# T2 sequence: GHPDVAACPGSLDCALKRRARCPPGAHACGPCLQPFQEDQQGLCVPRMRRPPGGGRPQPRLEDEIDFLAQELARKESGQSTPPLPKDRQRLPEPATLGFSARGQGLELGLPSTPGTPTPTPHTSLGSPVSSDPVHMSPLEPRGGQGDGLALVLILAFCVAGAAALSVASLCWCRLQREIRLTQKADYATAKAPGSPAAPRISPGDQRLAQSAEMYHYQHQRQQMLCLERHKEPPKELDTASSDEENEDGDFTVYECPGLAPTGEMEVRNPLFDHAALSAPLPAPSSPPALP
# T3: BR3 expressed on cells (human, UniProt Q96RJ3 1-184)
# T3 construct: Clone of the Origene human cDNA library
# T3 sequence: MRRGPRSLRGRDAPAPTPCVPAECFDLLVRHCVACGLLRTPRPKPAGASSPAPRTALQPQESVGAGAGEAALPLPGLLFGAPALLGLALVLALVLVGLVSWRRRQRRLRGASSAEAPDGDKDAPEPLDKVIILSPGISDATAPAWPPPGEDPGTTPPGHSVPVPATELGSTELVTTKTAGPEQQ
# T4: IL-2Ra expressed on cells (human, UniProt P01589 22-272)
# T4 construct: Clone of the Origene human cDNA library; also called Interleukin 2 receptor alpha
# T4 sequence: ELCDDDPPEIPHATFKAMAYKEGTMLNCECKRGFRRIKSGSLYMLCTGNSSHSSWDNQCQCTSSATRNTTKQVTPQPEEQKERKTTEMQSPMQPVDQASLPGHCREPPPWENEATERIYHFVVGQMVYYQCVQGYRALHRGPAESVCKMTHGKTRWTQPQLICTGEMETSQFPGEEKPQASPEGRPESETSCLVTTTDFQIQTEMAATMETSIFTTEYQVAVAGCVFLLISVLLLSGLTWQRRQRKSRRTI
# T5: MAG expressed on cells (human, UniProt P20916 20-626)
# T5 construct: Clone of the Origene human cDNA library; also called Myelin associated glycoprotein; SIGLEC4A
# T5 sequence: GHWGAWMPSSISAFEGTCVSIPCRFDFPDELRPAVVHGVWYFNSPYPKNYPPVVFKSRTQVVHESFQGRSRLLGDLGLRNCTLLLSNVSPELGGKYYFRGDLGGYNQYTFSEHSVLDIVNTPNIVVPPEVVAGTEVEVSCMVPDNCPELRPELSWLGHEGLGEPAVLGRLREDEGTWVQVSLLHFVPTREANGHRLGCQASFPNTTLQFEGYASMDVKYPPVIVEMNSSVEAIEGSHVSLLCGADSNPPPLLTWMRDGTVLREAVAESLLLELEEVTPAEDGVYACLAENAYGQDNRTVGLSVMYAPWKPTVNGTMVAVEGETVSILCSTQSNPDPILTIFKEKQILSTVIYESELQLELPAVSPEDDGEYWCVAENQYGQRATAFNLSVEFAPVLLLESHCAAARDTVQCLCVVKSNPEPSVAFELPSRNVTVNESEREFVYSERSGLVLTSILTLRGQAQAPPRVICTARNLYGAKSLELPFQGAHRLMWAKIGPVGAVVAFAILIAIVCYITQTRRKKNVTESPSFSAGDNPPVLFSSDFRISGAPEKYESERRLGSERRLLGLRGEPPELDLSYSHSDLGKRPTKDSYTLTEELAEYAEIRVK
# Columns and labels:
# [1] = molecular target: T6, human COLEC12 expressed on cells (human, UniProt Q5KU26 1-742); test: flow cytometry, transfected 293T cells, 50 µg/ml; 293T-Neo: 1.1
# T6 construct: also called hCOLEC12; C-terminal his tagged hCOLEC12
# [2] = molecular target: T1, mouse CD99 expressed on 293T cells; test: as above
# [3] = molecular target: T2, human NPDC1 expressed on cells; test: as above
# [4] = molecular target: T6, human COLEC12 expressed on cells; test: flow cytometry, transfected 293T cells, 50 µg/ml
# [5] = molecular target: T6, human COLEC12 expressed on cells; test: flow cytometry, transfected 293T cells, 2 µg/ml; 293T-Neo: 0
# [6] = molecular target: T2, human NPDC1 expressed on cells; test: as above
# BR3 expressed on cells [7] = molecular target: T3, BR3 expressed on cells; test: flow cytometry, transfected 293T cells, 50 µg/ml
# [8] = molecular target: T4, IL-2Ra expressed on cells; test: flow cytometry, transfected 293T cells, 50 µg/ml
# MAG expressed on cells = molecular target: T5, MAG expressed on cells; test: flow cytometry, transfected 293T cells, 2 µg/ml
# BR3 expressed on cells [9] = molecular target: T3, BR3 expressed on cells; test: flow cytometry, transfected 293T cells
# PSS8 expressed on cells = molecular target: T7, PSS8 expressed on cells (human, UniProt Q16651 30-343); test: flow cytometry, transfected 293T cells
# T7 construct: Clone of the Origene human cDNA library; also called Protease serine 8; prostasin
# [10] = molecular target: T4, IL-2Ra expressed on cells; test: flow cytometry, transfected 293T cells
# [11] = molecular target: T6, human COLEC12 expressed on cells; test: AP staining of transfected COS7 cells with AP fusion supernatant
# Protocol: (§1) 2931 cells were transfected with PILRα-AP-pRK5 constructs and Fugene 6 Transfection Reagent (Roche) according to the manufacturer's instructions. Three days after transfection, supernatants were collected for screening. COS7 cells were plated in a 24-well format and transfected with 10 ul of Origene library DNA (Origene, human DNA library containing 20 k genes) per well with Fugene 6 Reagent. Two days later, cells were incubated with human or mouse PILRα-Ap supernatants for 45 min at room temperature (RT). Then cells were fixed with 4% PFA for 15 min at RT. After removing fixation buffer, cells were blocked with 100 mM Glycine in HBS (20 mM Hepes, PH7.2, 150 mM NaCl) for 15 min at RT. Cells were then rinsed and incubated in HBS for 90 min at 65° C. HBS was removed and Western Blue Substrate (Promega) was added and color was developed for 30 min to 1 hr.
# [12] = molecular target: T2, human NPDC1 expressed on cells; test: as above
# Protocol: as §1
# T6 sequence (Q5KU26 whole entry S522P/G606S): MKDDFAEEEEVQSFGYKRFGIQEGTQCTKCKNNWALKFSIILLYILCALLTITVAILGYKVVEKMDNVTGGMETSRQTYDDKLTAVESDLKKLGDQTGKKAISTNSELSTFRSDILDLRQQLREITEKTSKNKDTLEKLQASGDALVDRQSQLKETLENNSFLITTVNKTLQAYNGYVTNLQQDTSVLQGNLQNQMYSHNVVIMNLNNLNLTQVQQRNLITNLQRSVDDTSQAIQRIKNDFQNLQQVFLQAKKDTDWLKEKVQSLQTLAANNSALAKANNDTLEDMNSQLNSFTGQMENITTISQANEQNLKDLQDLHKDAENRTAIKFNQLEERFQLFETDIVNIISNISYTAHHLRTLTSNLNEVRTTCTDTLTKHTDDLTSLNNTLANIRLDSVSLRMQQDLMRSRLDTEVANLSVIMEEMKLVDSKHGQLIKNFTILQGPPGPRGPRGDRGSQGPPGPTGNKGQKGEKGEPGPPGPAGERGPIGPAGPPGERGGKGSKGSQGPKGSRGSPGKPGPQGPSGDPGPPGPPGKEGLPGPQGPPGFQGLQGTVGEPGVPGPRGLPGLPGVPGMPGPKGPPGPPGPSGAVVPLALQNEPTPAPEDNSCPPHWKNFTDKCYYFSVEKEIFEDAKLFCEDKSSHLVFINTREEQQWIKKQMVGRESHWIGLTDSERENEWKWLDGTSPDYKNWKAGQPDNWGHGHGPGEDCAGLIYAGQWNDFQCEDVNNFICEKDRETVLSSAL
# T7 sequence (Q16651 30-343 limits assumed): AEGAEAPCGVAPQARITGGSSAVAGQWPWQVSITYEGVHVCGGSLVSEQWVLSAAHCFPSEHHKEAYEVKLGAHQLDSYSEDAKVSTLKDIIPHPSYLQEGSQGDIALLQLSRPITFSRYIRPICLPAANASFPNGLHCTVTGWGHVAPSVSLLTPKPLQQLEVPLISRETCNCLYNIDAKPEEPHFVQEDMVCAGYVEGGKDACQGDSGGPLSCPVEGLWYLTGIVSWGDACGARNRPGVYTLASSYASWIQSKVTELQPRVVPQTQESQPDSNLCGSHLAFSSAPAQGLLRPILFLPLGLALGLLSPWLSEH
binder,measurement,setting,value
"mPILRα-Fc (Fc fusion, also called mouse PILRα-Fc; WT mPILRα-Fc; not shown: Fc of mouse IgG2a (PILRα-mIgG2a, called PILRα-Fc)) not shown",% cells in lower right quadrant,[1],10.1%
same,% cells in lower right quadrant,[2],46.4%
same,% cells in lower right quadrant,[3],40.9%
same,% cells in lower right quadrant,[4],10.1%
same,% cells in lower right quadrant,[5],0.082%
same,% cells in lower right quadrant,[6],29.6%
same,% cells in lower right quadrant,BR3 expressed on cells [7],53.3%
same,% cells in lower right quadrant,[8],55.7%
same,% cells in lower right quadrant,MAG expressed on cells,0.039%
"mPILRαR133A-Fc (Fc fusion, Arg mutant of mPILRα-Fc; also called mPILRα133A-Fc; variant mPILRα (R133A); not shown: Fc of mouse IgG2a (PILRα-mIgG2a, called PILRα-Fc)) not shown",binding result,BR3 expressed on cells [9],no binding (tested: 50 µg/ml)
same,binding result,PSS8 expressed on cells,no binding (tested: 50 µg/ml)
same,binding result,[10],no binding (tested: 50 µg/ml)
"hPILRα-AP (other, Used as culture supernatant; also called human PILRα-AP; Alkaline phosphatase (AP)-tagged PILRα construct; not shown: C-terminal alkaline phosphatase (AP) tag) QPSGSTGSGPSYLYGVTQPKHLSASMGGSVEIPFSFYYPWELATAPDVRISWRRGHFHRQSFYSTRPPSIHKDYVNRLFLNWTEGQKSGFLRISNLQKQDQSVYFCRVELDTRSSGRQQWQSIEGTKLSITQAVTTTTQRPSSMTTTWRLSSTTTTTGLRVTQGKRRSDSWHISLET",binding result,[11],binds
same,binding result,[12],binds
